US20150005534A1

Target: CYP97C2 (rice) expressed in E. coli from pRQ-C2 (pCDFDuet-1-CYP97C2) (Rice (O. sativa))
Assay: cell-based or functional assay

Substance “CYP97A4 (rice) expressed in E. coli from pRT-A4 (pCOLADuet-1-CYP97A4) (enzyme)” has a lutein, % of total carotenoids in alpha- and beta-carotene accumulating E. coli with co-expressed hydroxylases (% of total carotenoids) of 29.

Work on “HYD4 (maize) expressed in E. coli from pRQ-H4 (pCOLADuet-1-HYD4) (enzyme)” yielded a lutein, % of total carotenoids in alpha- and beta-carotene accumulating E. coli with co-expressed hydroxylases (% of total carotenoids) of 1.58.
